# Measurements: IntAct's records for PubMed 8940095
# Biological target: pdli5_rat Pdlim5 (UniProt Q62920)
# Sequence (Q62920 whole entry): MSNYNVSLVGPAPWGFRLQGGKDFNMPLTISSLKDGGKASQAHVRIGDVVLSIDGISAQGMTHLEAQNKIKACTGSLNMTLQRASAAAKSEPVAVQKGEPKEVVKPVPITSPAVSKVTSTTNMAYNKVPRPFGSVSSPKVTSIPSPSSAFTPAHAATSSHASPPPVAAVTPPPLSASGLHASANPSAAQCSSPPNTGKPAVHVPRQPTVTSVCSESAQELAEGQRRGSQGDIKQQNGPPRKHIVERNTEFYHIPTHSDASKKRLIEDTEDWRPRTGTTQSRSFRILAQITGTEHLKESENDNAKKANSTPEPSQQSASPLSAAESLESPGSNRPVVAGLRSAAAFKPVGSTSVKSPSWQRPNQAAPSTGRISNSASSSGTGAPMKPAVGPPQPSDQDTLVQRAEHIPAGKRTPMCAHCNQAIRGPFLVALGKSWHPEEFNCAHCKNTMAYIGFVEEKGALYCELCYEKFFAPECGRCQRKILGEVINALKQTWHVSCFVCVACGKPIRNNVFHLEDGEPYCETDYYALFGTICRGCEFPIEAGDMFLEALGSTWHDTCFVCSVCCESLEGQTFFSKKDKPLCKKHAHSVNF
# Chain of Protein kinase C beta type (Rattus norvegicus (Rat)), P68403-1 K371M (P68403 whole entry K371M): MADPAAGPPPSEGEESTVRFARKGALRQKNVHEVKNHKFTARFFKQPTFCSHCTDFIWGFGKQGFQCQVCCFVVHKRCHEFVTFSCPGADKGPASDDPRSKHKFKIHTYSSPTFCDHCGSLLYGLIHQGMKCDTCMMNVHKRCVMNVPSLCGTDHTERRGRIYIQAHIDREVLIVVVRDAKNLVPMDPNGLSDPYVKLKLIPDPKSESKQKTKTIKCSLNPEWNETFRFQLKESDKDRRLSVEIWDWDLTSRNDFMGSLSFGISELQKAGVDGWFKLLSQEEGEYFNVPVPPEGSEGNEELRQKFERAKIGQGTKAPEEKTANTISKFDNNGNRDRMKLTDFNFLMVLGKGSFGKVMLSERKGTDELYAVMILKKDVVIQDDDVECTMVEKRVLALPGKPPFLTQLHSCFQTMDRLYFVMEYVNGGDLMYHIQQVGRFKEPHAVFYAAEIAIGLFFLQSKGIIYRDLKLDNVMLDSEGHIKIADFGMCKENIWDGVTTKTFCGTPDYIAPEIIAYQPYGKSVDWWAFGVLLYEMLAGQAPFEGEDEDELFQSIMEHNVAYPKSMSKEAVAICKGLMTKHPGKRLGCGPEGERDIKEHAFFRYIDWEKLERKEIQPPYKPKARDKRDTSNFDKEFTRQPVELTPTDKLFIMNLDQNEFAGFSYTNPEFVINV
substance,measurement,value
"Protein kinase C beta type (Rattus norvegicus (Rat)), P68403-1 K371M",effect of a mutation on the interaction,with no effect
